Target: His-FliI(R33A) (Salmonella enterica) (UniProt P26465)

Substance: His-FliI(R33A) (from UniProt P26465 1-456) (enzyme)
- ATPase activity (Malachite Green assay, 4 mM ATP) at 17 to 85 nM FliI(R33A) (nmol of phosphate min^−1 μg^−1): 1.21

— paper PMC8041783
